Target: T1, human Desmoglein 2 (Dsg2) (human, UniProt Q14126 50-1118)
T1 construct: whole, on cells; Endogenous protein; In flow cytometry it stood on the surface of H1, H9 and iPSC cells; In immunoprecipitation and Western blotting it came from lysate of (surface-biotinylated) H9 cells, with bands of 165 kDa or 100 kDa
T1 sequence (looked up): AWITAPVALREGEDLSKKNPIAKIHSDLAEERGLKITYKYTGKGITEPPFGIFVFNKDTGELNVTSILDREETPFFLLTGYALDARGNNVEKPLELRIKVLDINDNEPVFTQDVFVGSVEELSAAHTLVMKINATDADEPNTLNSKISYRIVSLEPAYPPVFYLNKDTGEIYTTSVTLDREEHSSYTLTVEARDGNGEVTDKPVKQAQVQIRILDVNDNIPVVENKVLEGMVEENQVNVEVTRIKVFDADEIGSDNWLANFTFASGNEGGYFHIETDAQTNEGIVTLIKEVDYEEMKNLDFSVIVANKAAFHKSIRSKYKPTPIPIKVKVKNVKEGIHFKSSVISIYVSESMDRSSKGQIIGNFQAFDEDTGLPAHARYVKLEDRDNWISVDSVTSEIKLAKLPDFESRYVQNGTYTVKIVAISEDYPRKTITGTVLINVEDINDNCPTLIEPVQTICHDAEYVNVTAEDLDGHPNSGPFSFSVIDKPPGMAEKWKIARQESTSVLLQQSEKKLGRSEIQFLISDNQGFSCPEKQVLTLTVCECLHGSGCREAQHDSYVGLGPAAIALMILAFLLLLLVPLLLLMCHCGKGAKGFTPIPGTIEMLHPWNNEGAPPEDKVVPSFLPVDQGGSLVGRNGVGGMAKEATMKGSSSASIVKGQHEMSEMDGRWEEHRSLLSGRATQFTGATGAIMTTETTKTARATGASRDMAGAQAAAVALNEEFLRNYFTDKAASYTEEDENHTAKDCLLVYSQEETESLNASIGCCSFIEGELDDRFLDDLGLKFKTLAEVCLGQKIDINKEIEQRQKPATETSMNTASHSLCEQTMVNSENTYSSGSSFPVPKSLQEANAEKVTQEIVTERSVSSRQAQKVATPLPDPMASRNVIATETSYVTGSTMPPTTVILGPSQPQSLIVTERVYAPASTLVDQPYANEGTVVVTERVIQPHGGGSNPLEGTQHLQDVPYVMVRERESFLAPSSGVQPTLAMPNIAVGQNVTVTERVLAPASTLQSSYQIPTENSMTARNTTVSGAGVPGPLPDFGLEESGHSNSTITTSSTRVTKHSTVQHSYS
Assay: flow cytometry, fluorescence staining of H1, H9 and iPSC cells (endogenous Dsg2 on the surface)
Experimental: Among those clones prepared in Example 2, the hybridoma clone which secreted the antibody comparatively stably was selected and the binding capacity to human pluripotent stem cells was investigated. Particularly, the cultured human pluripotent stem cells were separated by using collagenase IV. The cells were treated with cell separation buffer (GIBCO) for 20 minutes at 37° C., leading to the separation of the cells as single cells. The cells were passed through 40 μm strainer, and 2×10⁵ cells proceeded to flow cytometry. The human pluripotent stem cells prepared as single cells were suspended in PBA (1% BSA was dissolved in PBS), followed by reaction with the antibody supernatant at 4° C. for 30 minutes. Centrifugation was performed at 4° C. at 1200 rpm for 5 minutes and 100 μl of the supernatant was eliminated. The anti-mouse Ig-FITC (BD) was diluted (1:200). […]
To investigate the binding capacity of the antibody 6-1 purified in Example <3-2> to human pluripotent stem cells, fluorescence staining was performed by the same manner as described in Example <3-1> (FIG. 2A). […] In FIG. 2A, the blue line illustrates the fluorescence staining of human pluripotent stem cells with the monoclonal antibody 6-1, wherein the antibody 6-1 bound to all of those three kinds of human pluripotent stem cells.

B1: monoclonal antibody 6-1 (antibody, V domains shown)
VH: QVKLQESGPELVRPGESVKISCKGSGYTFTDYAMHWVKQSPAKTLEWLGVISIYYDNTNYNQKFKGKATLTVDKSSSTAYMELARLTSEDSAIYYCAREGDYFALDYWGQGTSVTVSS
VL: DIVMTQSPAIMSASPGEKVTMTCSASSSVSYMYWYQQKPGSSPRLLIYDTSNLASGVPVRFSGSGSGTSYSLTISRMEAEDAATYYCQQWSSFPLTFGAGTKLELKR
notes: Mouse monoclonal antibody from hybridoma 6-1 (Balb/c mouse immunised with H9 cells, fused with NS1 myeloma); Purified from ascites on protein G-sepharose; hybridoma supernatant was used for screening; They were cloned with an IgG1 constant region primer and a kappa chain constant region primer
- binding result: binds

Source: patent publication US20160097096A1 (KOREA RESEARCH INSTITUTE OF BIOSCIENCE AND BIOTECHNOLOGY, published 2016)
